Positions of bridges follow the written chain, without caps; N, C: chain ends. Non-standard residues stand in square brackets, D forms with d. Groups on a side chain read outwards from the residue. No end group written: not given here. *: point of attachment. Dip = N[C@H](C(=O)O)C(c1ccccc1)c1ccccc1; azide = [N-]=[N+]=N*
Assays:
[1] = biological target: anti-HER2 memAb (trastuzumab-based, meditope-enabled anti-HER2 antibody); test: SPR; memAb variant amine-coupled to a CM5 chip, peptide flowed over at 30 uL/min, HBS-EP+, 25 °C, Biacore T100, 1:1 binding model
[2] = biological target: anti-HER2 memAb (trastuzumab-based, meditope-enabled anti-HER2 antibody); test: SPR; memAb variant amine-coupled to a CM5 chip, peptide flowed over at 30 uL/min, HBS-EP+, 37 °C, Biacore T100, 1:1 binding model
Ile83Glu anti-HER2 memAb [3] = test: SPR; memAb variant amine-coupled to a CM5 chip, peptide flowed over, HBS-EP+; temperature not told for this result (25 °C or 37 °C)
[4] = biological target: Ile83Glu memAb anti-HER2 IgG; test: SPR; Ile83Glu memAb anti-HER2 amine-coupled on a CM5 chip, meditope flowed over at 30 uL/min, HBS-EP+, 37 °C, 1:1 model, global fit, n=4, standard deviation
[5] = biological target: memAb anti-HER2 (meditope-enabled, trastuzumab-based anti-HER2 antibody); test: SPR; memAb anti-HER2 amine-coupled on a CM5 chip, meditope flowed over at 30 uL/min, HBS-EP+, 25 °C, 1:1 model, global fit, n=1 (authors estimate the error at 10-50%)
[6] = biological target: memAb anti-HER2 (meditope-enabled, trastuzumab-based anti-HER2 antibody); test: SPR; memAb anti-HER2 amine-coupled on a CM5 chip, meditope flowed over at 30 uL/min, HBS-EP+, 37 °C, 1:1 model, global fit, n=1 (authors estimate the error at 10-50%)
[7] = biological target: Ile83Glu memAb anti-HER2 IgG; test: SPR; Ile83Glu memAb anti-HER2 amine-coupled on a CM5 chip, meditope flowed over at 30 uL/min, HBS-EP+, 25 °C, 1:1 model, global fit, n=1 (authors estimate the error at 10-50%)
[8] = biological target: Ile83Glu memAb anti-HER2 IgG; test: SPR; Ile83Glu memAb anti-HER2 IgG immobilized on the sensor chip, 37 °C, n=1, analyte as a two-fold dilution series from 500 pM to 39 pM, 1:1 interaction model
Ile83Glu anti-HER2 memAb [9] = test: SPR; memAb variant amine-coupled to a CM5 chip, peptide flowed over at 30 uL/min, HBS-EP+, 25 °C, Biacore T100, 1:1 binding model
Ile83Glu anti-HER2 memAb [10] = test: SPR; memAb variant amine-coupled to a CM5 chip, peptide flowed over at 30 uL/min, HBS-EP+, 37 °C, Biacore T100, 1:1 binding model

Ile83Glu memAb anti-HER2 IgG, sequence (heavy, as listed by the source, chain 1 of 2): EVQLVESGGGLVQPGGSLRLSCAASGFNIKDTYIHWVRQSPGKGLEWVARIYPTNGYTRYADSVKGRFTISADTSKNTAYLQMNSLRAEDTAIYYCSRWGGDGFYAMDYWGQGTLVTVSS
Ile83Glu memAb anti-HER2 IgG, sequence (light, as listed by the source, chain 2 of 2): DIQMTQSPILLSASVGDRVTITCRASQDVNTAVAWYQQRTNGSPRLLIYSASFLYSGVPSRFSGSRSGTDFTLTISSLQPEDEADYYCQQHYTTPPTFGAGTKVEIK
Ile83Glu anti-HER2 memAb, sequence (heavy, as listed by the source, chain 1 of 2): as the sequence (heavy, as listed by the source, chain 1 of 2) above
anti-HER2 memAb (trastuzumab-based, meditope-enabled anti-HER2 antibody), sequence (heavy, as listed by the source, chain 1 of 2): as above
anti-HER2 memAb (trastuzumab-based, meditope-enabled anti-HER2 antibody), sequence (light, as listed by the source, chain 2 of 2): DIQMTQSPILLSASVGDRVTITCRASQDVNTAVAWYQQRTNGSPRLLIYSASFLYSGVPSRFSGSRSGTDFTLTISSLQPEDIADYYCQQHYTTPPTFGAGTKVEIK
memAb anti-HER2 (meditope-enabled, trastuzumab-based anti-HER2 antibody), sequence (heavy, as listed by the source, chain 1 of 2): as the sequence (heavy, as listed by the source, chain 1 of 2) above

Kd [4] [nM] | koff [4] [s⁻¹] | kon [4] [M⁻¹ s⁻¹] | koff [5] [s⁻¹] | kon [5] [M⁻¹ s⁻¹] | koff [6] [s⁻¹] | kon [6] [M⁻¹ s⁻¹] | koff [7] [s⁻¹] | kon [7] [M⁻¹ s⁻¹] | Binder | other results
– | – | – | – | – | – | – | – | – | CQFDLSTRRLKC (disulfide 1-12 (inferred)) [original meditope (…)] | Kd [1]: 1200 nM; Kd [2]: 1000 nM; half-life [2]: 0.267 min; Kd (Ile83Glu anti-HER2 memAb [3]): 23 nM
4 | 0.00063 | 160000 | 0.006 | 28000 | 0.026 | 75000 | 0.00031 | 710000 | Ac-CQFDLSTRRLRCGGSK (disulfide 1-12 (inferred)) [long meditope (Ac)…] | Kd [5]: 210 nM; Kd [6]: 350 nM; Kd [7]: 0.44 nM
– | – | – | – | – | – | – | – | – | Ac-CQFD[Dip]STR([(PEG)2-azide])RLRCGGSK (disulfide 1-12 (inferred); also: arginine-(PEG)2-azide at position 8 by name (footnote: 9th place)) [5-diphenylalanine-8-Arg-(PEG)2-azidomeditope] | koff [8]: 0.00014 s⁻¹; kon [8]: 66000 M⁻¹ s⁻¹
– | – | – | – | – | – | – | – | – | Ac-CQFD[Dip]STRRLRCGGSK (disulfide 1-12 (inferred)) [5-diphenylalanine long meditope ((Ac)CQFDA(Ph)2…)] | Kd (Ile83Glu anti-HER2 memAb [9]): < 0.026 nM; koff (Ile83Glu anti-HER2 memAb [9]): < 1e-05 s⁻¹; Kd (Ile83Glu anti-HER2 memAb [10]): 0.4 nM; half-life (Ile83Glu anti-HER2 memAb [10]): 40 min
20 | 0.0025 | 260000 | 0.016 | 13000 | 0.044 | 44000 | 0.00059 | 26000 | CQFDLSTRRLKC (disulfide 1-12) [original meditope …] | –

Source: paper PMC5910394, “Mechanically interlocked functionalization of monoclonal antibodies” (Nature Communications, 2018)
